Measurements published in patent US20230265151A1, “GIP/GLP1 CO-AGONIST COMPOUNDS” (priority 2020, published 2023).
Substitutions are numbered along the chain they refer to. *1 amine or outer side, *2 acyl side, *3 side chain or, on linkers, in order; H or OH if unused. Where no end group is shown, it is not given here. Side-chain parts run from the residue outwards. [ ]: non-standard residue; d: D form. The star is where a group is joined. Decanoyl(10-(4-HOOC-PhO)) = O=C(O)c1ccc(OCCCCCCCCCC(=O)*)cc1; αMePhe(2-F) = C[C@](N)(Cc1ccccc1F)C(=O)O; γGlu = O=C(O)[C@H](CCC(=O)[*:2])N[*:1]; αMeY = C[C@](N)(Cc1ccc(O)cc1)C(=O)O; αMeL = CC(C)C[C@](C)(N)C(=O)O; Orn = NCCC[C@H](N)C(=O)O; AEEA = NCCOCCOCC(=O)O; Aib = CC(C)(N)C(=O)O

B1: Example 404 (peptide)
peptide: YXEGTXTSDXXIXLDXKAQXKFIXXLIEGGPSSGAPPPS
modifications: Y-Aib-EGT-αMeF(2F)-TSD-4Pal-Aib-I-αMeL-LD-Orn-K(PEG3-(γ-Glu)-CO-(CH2)12-CO2H)AQ-Aib-K(PEG3-(γ-Glu)-CO-(CH2)12-CO2H)FI-(D-Glu)-αMeY-LIEGGPSSGAPPPS-NH2
B2: Example 417 (peptide)
peptide: B1 peptide with X10K, K21X
modifications: Y-Aib-EGT-αMeF(2F)-TSDK((2-[2-(2-Amino-ethoxy)-ethoxy]-acetyl)2-(γ-Glu)-CO-(CH2)10-CH3)-Aib-I-αMeL-LD-Orn-K((2-[2-(2-Amino-ethoxy)-ethoxy]-acetyl)2-(γ-Glu)-CO-(CH2)10-CH3)AQ-Aib-Orn-FI-(D-Glu)-αMeY-LIEGGPSSGAPPPS-NH2
B3: Example 422 (peptide)
peptide: B1 peptide
modifications: Y-Aib-EGT-αMeF(2F)-TSD-4Pal-Aib-I-αMeL-LD-Orn-K((2-[2-(2-Amino-ethoxy)-ethoxy]-acetyl)3-(γ-Glu)-CO-(CH2)10-CH3)AQ-Aib-K((2-[2-(2-Amino-ethoxy)-ethoxy]-acetyl)3-(γ-Glu)-CO-(CH2)10-CH3)FI-(D-Glu)-αMeY-LIEGGPSSGAPPPS-NH2
B4: Example 419 (peptide)
peptide: B1 peptide with K21T, E28K
modifications: Y-Aib-EGT-αMeF(2F)-TSD-4Pal-Aib-I-αMeL-LD-Orn-K((2-[2-(2-Amino-ethoxy)-ethoxy]-acetyl)2-(γ-Glu)-CO-(CH2)10-CH3)AQ-Aib-TFI-(D-Glu)-αMeY-LIK((2-[2-(2-Amino-ethoxy)-ethoxy]-acetyl)2-(γ-Glu)-CO-(CH2)10-CH3)GGPSSGAPPPS-NH2
B5: Example 405 (peptide)
peptide: B1 peptide
modifications: Y-Aib-EGT-αMeF(2F)-TSD-4Pal-Aib-I-αMeL-LD-Orn-K(PEG4-(γ-Glu)-CO-(CH2)12-CO2H)AQ-Aib-K(PEG4-(γ-Glu)-CO-(CH2)12-CO2H)FI-(D-Glu)-αMeY-LIEGGPSSGAPPPS-NH2
B6: Example 409 (peptide)
peptide: B1 peptide with X10Y, E28X
modifications: Y-Aib-EGT-αMeF(2F)-TSDY-Aib-I-αMeL-LD-Orn-K((2-[2-(2-Amino-ethoxy)-ethoxy]-acetyl)2-(γ-Glu)-(10-(4-carboxyphenoxy)decanoyl))AQ-Aib-K((2-[2-(2-Amino-ethoxy)-ethoxy]-acetyl)2-(γ-Glu)-(10-(4-carboxyphenoxy)decanoyl))FI-(D-Glu)-αMeY-LI-Orn-GGPSSGAPPPS-NH2

target: human glucagon receptor (human) (UniProt P47871); experiment: cell-based or functional assay

Binder	cAMP EC50 [nM]
Y[Aib]EGT[αMePhe(2-F)]TSDV[Aib]I[αMeL]LD[Orn]K([AEEA-AEEA-γGlu-Decanoyl(10-(4-HOOC-PhO))])AQ[Aib]K([AEEA-AEEA-γGlu-Decanoyl(10-(4-HOOC-PhO))])FI[dE][αMeY]LI[Orn]GGPSSGAPPPS-NH2 [Example 410]	> 9950
B1	> 9950
B2	> 9950
B3	> 9950
B4	> 9950
B5	> 9950
B6	> 9950

target: T1, human GIP receptor (human) (UniProt P48546); experiment: cell-based or functional assay
T1 sequence (looked up): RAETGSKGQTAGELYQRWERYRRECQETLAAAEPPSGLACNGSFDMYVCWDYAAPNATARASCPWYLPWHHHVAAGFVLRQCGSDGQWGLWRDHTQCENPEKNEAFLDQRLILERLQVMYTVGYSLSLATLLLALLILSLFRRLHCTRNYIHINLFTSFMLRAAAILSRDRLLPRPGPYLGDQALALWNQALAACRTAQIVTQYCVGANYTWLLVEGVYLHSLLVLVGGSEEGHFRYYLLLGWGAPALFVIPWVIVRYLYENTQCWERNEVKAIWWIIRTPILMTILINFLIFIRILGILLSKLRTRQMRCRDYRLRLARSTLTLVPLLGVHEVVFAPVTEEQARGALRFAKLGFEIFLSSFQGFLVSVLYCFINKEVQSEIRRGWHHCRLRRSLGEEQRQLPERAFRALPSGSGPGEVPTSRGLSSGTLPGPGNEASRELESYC

Binder	cAMP EC50 [nM]	cAMP Emax [%]
Y[Aib]EGT[αMePhe(2-F)]TSDV[Aib]I[αMeL]LD[Orn]K([AEEA-AEEA-γGlu-Decanoyl(10-(4-HOOC-PhO))])AQ[Aib]K([AEEA-AEEA-γGlu-Decanoyl(10-(4-HOOC-PhO))])FI[dE][αMeY]LI[Orn]GGPSSGAPPPS-NH2 [Example 410]	0.0118	99.1
B1	0.014	101
B2	0.00651	101
B3	0.00655	104
B4	0.00958	101
B5	0.0209	100
B6	0.00928	99.2

target: hGLP-1R (Homo sapiens, UniProt P43220); experiment: cell-based or functional assay

Binder	cAMP EC50 [nM]	cAMP Emax [%]
Y[Aib]EGT[αMePhe(2-F)]TSDV[Aib]I[αMeL]LD[Orn]K([AEEA-AEEA-γGlu-Decanoyl(10-(4-HOOC-PhO))])AQ[Aib]K([AEEA-AEEA-γGlu-Decanoyl(10-(4-HOOC-PhO))])FI[dE][αMeY]LI[Orn]GGPSSGAPPPS-NH2 [Example 410]	0.251	94
B1	0.632	94.3
B2	0.0675	109
B3	0.0729	106
B4	0.132	113
B5	1.26	93.3
B6	0.188	103

target: human GLP-1 receptor (human, UniProt P43220 24-463); experiment: cell-based or functional assay

Binder	cAMP EC50 (1.0% HSA) [nM]	cAMP Emax (1.0% HSA) [%]
Y[Aib]EGT[αMePhe(2-F)]TSDV[Aib]I[αMeL]LD[Orn]K([AEEA-AEEA-γGlu-Decanoyl(10-(4-HOOC-PhO))])AQ[Aib]K([AEEA-AEEA-γGlu-Decanoyl(10-(4-HOOC-PhO))])FI[dE][αMeY]LI[Orn]GGPSSGAPPPS-NH2 [Example 410]	11	93.1
B1	49.1	
B2	2.66	
B3	3.84	
B4	7.19	97.3
B5	37.5	78.1
B6	8.05	97.7

target: human glucagon receptor (human, UniProt P47871 26-477); experiment: cell-based or functional assay
Sequence (P47871 26-477): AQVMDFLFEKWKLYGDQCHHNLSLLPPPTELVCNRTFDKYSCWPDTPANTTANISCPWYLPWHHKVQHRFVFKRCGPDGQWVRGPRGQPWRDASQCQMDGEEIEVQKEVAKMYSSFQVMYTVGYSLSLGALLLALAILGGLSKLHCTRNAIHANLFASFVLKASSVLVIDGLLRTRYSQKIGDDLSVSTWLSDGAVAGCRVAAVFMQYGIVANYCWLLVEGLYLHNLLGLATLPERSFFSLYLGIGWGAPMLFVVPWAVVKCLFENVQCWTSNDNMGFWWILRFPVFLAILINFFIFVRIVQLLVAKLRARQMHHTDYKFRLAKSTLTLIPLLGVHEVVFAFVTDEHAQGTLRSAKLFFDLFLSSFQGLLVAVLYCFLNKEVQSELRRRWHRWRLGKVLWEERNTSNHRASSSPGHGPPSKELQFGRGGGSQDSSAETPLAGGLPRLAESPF

Binder	cAMP EC50 (1.0% HSA) [nM]
Y[Aib]EGT[αMePhe(2-F)]TSDV[Aib]I[αMeL]LD[Orn]K([AEEA-AEEA-γGlu-Decanoyl(10-(4-HOOC-PhO))])AQ[Aib]K([AEEA-AEEA-γGlu-Decanoyl(10-(4-HOOC-PhO))])FI[dE][αMeY]LI[Orn]GGPSSGAPPPS-NH2 [Example 410]	> 9950
B1	> 9950
B2	> 9950
B3	> 9950
B4	> 9950
B5	> 9950
B6	> 9950

target: T2, human GIP receptor (human, UniProt P48546 22-466); experiment: cell-based or functional assay
T2 sequence (looked up): T1 sequence (looked up)

Binder	cAMP EC50 (1.0% HSA) [nM]	cAMP Emax (1.0% HSA) [%]
Y[Aib]EGT[αMePhe(2-F)]TSDV[Aib]I[αMeL]LD[Orn]K([AEEA-AEEA-γGlu-Decanoyl(10-(4-HOOC-PhO))])AQ[Aib]K([AEEA-AEEA-γGlu-Decanoyl(10-(4-HOOC-PhO))])FI[dE][αMeY]LI[Orn]GGPSSGAPPPS-NH2 [Example 410]	1.28	86.4
B1	1.74	
B2	0.201	
B3	0.199	97.5
B4	0.44	
B5	1.23	
B6	0.537	84
